Target: the molecule itself
Experiment: FRET or BRET

B1: InlB321 K280C mutant, fluorophore-labeled (T variant) (domain or fragment, Listeria monocytogenes, UniProt P0DQD2 36-321, looked up)
chain: ETITVPTPIKQIFSDDAFAETIKDNLKKKSVTDAVTQNELNSIDQIIANNSDIKSVQGIQYLPNVTKLFLNGNKLTDIKPLANLKNLGWLFLDENKVKDLSSLKDLKKLKSLSLEHNGISDINGLVHLPQLESLYLGNNKITDITVLSRLTKLDTLSLEDNQISDIVPLAGLTKLQNLYLSKNHISDLRALAGLKNLDVLELFSQEALNKPINHQSNLVVPNTVKNTDGSLVTPEIISDDGDYECPNVKWHLPEFTNEVSFIFYQPVTIGKAKARFHGRVTQPLKE
modifications: Cy3B (donor) or ATTO 647N (acceptor) attached by maleimide chemistry to the single cysteine at position 280
Q: Does B1 bind?
A: binds

Source: article doi:10.1101/2023.12.22.572978 (bioRxiv, 2023)
